Six molecules from US20260265379A1 (IMCHECK THERAPEUTICS, published 2026) can be followed below.

Assay [1] concerns the target T1, PD-1 at the surface of Jurkat-PD-1 cells (human, UniProt Q15116 25-288). The assay can be described thus: cell-based or functional assay.
Assay [2] has as its target T1, PD-1 at the surface of Jurkat-PD-1 cells. The assay can be described thus: flow cytometry, Jurkat-PD-1 cells. On the technique in general: In flow cytometry, cells or beads pass a laser one at a time.
For assay [3], the target named is T2, recombinant human BTN3A1 (human, UniProt O00481 30-254).
T2 construct: Soluble form of the antigen used in SPR; also called rhBTN3A1; recombinant BTN3A1 protein
T2 sequence (O00481 30-254 limits assumed): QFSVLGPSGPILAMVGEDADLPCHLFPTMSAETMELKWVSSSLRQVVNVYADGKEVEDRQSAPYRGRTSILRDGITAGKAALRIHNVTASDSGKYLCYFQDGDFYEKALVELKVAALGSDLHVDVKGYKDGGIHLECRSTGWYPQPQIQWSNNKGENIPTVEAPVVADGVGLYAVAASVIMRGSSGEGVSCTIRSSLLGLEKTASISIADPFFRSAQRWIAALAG
The assay can be described thus: SPR. (In general: In SPR one partner is held on a chip, and binding of the other changes the refractive index at the surface.)

Assay [4] has as its target T3, recombinant human PD-1 (human, UniProt Q15116 25-167, limits assumed).
T3 construct: Soluble antigen in SPR; also called rhPD-1
The assay can be described thus: SPR.

For assay [5], the target named is T4, BTN3A1 at the surface of HEK-BTN3A1 cells (human, UniProt O00481 30-513).
T4 construct: HEK 293T BTN2A/BTN3A KO cells transduced with a BTN3A1 expressing vector
T4 sequence (O00481 30-513 limits assumed): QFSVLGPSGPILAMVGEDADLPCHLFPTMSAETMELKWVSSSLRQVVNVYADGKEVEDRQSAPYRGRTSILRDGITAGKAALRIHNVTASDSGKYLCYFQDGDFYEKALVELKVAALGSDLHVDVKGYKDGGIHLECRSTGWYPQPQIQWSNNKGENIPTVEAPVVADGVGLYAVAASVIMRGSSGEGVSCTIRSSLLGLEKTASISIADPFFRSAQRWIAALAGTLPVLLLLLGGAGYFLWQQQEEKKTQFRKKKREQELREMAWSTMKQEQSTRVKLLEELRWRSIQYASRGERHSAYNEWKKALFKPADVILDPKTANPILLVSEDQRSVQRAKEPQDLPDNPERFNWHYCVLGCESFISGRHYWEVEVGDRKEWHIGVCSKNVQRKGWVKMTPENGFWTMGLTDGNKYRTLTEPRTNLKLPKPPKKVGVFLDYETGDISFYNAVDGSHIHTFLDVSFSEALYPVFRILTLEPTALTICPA
The assay can be described thus: flow cytometry, HEK-BTN3A1 cells.

The target in assay [6] is T5, PD-L1 at the surface of transduced cells (UniProt Q9NZQ7 19-290, limits assumed).
T5 construct: whole, on cells; CHO-PD-L1 cells in flow cytometry, Raji-PD-L1 cells in the reporter assay; also called CHO-PD-L1; Raji-PD-L1
T5 sequence (Q9NZQ7 19-290 limits assumed): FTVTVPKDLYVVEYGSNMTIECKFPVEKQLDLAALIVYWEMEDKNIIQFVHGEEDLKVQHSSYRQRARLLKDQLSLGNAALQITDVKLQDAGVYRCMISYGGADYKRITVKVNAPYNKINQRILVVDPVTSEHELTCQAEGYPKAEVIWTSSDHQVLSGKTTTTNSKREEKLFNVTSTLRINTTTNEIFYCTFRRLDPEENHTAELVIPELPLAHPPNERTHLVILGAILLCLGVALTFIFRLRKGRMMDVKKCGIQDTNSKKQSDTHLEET
The assay can be described thus: flow cytometry, CHO-PD-L1 cells.

The target in assay [7] is T6, recombinant human PD-L1 (human, UniProt Q9NZQ7 19-239, limits assumed).
T6 construct: Soluble antigen in SPR; also called rhPD-L1
T6 sequence (Q9NZQ7 19-239 limits assumed): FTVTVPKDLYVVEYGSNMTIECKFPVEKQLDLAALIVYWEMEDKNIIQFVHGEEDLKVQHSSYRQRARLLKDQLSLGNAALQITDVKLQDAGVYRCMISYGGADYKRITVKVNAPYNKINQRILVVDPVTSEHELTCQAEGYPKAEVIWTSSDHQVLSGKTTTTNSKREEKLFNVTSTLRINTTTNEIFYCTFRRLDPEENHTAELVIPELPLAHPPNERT
The assay can be described thus: SPR.

T1 sequence (Q15116 25-288): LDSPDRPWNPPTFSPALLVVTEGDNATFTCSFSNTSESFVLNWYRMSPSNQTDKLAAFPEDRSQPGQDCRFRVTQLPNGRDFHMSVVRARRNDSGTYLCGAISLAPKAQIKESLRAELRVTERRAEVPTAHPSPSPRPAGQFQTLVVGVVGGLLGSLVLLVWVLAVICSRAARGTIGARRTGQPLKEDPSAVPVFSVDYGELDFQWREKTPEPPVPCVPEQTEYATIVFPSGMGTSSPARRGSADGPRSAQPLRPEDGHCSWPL
T3 sequence (Q15116 25-167 limits assumed): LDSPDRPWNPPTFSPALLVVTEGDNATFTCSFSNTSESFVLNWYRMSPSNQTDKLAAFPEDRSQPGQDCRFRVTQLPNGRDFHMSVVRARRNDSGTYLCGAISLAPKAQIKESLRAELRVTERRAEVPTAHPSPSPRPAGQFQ

B1: bsAb056 (bispecific antibody)
heavy 1: GGGGSGGGGSGGGGSGGGGSQVQLVQSGVEVKKPGASVKVSCKASGYTFTNYYMYWVRQAPGQGLEWMGGINPSNGGTNFNEKFKNRVTLTTDSSTTTAYMELKSLQFDDTAVYYCARRDYRFDMGFDYWGQGTTVTVSSGGGGSGGGGSGGGGSGGGGSEIVLTQSPATLSLSPGERATLSCRASKGVSTSGYSYLHWYQQKPGQAPRLLIYLASYLESGVPARFSGSGSGTDFTLTISSLEPEDFAVYYCQHSRDLPLTFGGGTKVEIK
heavy 2: QVQLVQSGAEVKKPGASVKLSCKASGYIFTRYYMYWVKQRPGQGLEWIGEINPNNGGTKFNEKFKNRATLTVDKSISTAYMELSRLRSDDTAVYYCSREDDYDGTPFAMDYWGQGTLVTVSS
light: not shown
notes: one Fab arm anti-BTN3A, one scFv anti-PD-1; not shown: CH2-CH3 (Fc); IgG1 CH1-hinge-CH2-CH3
In general, Kd refers to the equilibrium constant for the complex coming apart. Take B1: the “Jurkat-PD-1 activation at 10 nM” value in assay [1] was 1.5 fold-change to medium. The “Jurkat-PD-1 activation at 100 nM” value in assay [1] was 3.4 fold-change to medium. Besides, the figures for the “MFI at 100 nM” value in assay [2] and in assay [5] were 334000 MFI and 1e+06 MFI, respectively. Moreover, the values for the equilibrium dissociation constant (Kd) in assay [3] and in assay [4] were 0.065 nM and 2 nM, respectively. Further, in assay [5], the “MFI at 10 nM” value was 519000 MFI.

B2: bsAb051 (bispecific antibody)
heavy (part 1 of 2): QVQLVQSGAEVKKPGASVKLSCKASGYIFTRYYMYWVKQRPGQGLEWIGEINPNNGGTKFNEKFKNRATLTVDKSISTAYMELSRLRSDDTAVYYCSREDDYDGTPFAMDYWGQGTLVTVSS
heavy (part 2 of 2): GGGGSGGGGSGGGGSGGGGSEVQLVESGGGLVQPGGSLRLSCAASGFTFSRYWMSWVRQAPGKGLEWVANIKQDGSEKYYVDSVKGRFTISRDNAKNSLYLQMNSLRAEDTAVYYCAREGGWFGELAFDYWGQGTLVTVSSGGGGSGGGGSGGGGSGGGGSEIVLTQSPGTLSLSPGERATLSCRASQRVSSSYLAWYQQKPGQAPRLLIYDASSRATGIPDRFSGSGSGTDFTLTISRLEPEDFAVYYCQQYGSLPWTFGQGTKVEIK
heavy: GGGGSGGGGSGGGGSGGGGSEVQLVESGGGLVQPGGSLRLSCAASGFTFSRYWMSWVRQAPGKGLEWVANIKQDGSEKYYVDSVKGRFTISRDNAKNSLYLQMNSLRAEDTAVYYCAREGGWFGELAFDYWGQGTLVTVSSGGGGSGGGGSGGGGSGGGGSEIVLTQSPGTLSLSPGERATLSCRASQRVSSSYLAWYQQKPGQAPRLLIYDASSRATGIPDRFSGSGSGTDFTLTISRLEPEDFAVYYCQQYGSLPWTFGQGTKVEIK
light: not shown
notes: one Fab arm anti-BTN3A, two scFv anti-PD-L1; not shown: IgG1 CH1-hinge-CH2-CH3; CH2-CH3 (Fc)
Take B2: the entries for the “MFI at 10 nM” value in assay [6] and in assay [5] were 578000 MFI and 340000 MFI, respectively. For the same molecule, the “MFI at 100 nM” value in assay [6] turned out to be 597000 MFI; in assay [5] it was 792000 MFI. Further, the values for the Kd in assay [3] and in assay [7] were 0.095 nM and 0.033 nM, respectively.

B3: bsAb020 (bispecific antibody)
heavy: DIQMTQSPSSLSASVGDRVTITCHASQNINVWLSWYQQKPGKAPKLLIYKASNLHTGVPSRFTGSGSGTDFTFTISSLQPEDIATYYCQQGQTYPYTFGQGTKLEIKGGGGSGGGGSGGGGSGGGGSQVQLVQSGAEVKKPGASVKLSCKASGYIFTRYYMYWVKQRPGQGLEWIGEINPNNGGTKFNEKFKNRATLTVDKSISTAYMELSRLRSDDTAVYYCSREDDYDGTPFAMDYWGQGTLVTVSSGGGGSGGGGSGGGGSGGGGSEVQLVESGGGLVQPGGSLRLSCAASGFTFSRYWMSWVRQAPGKGLEWVANIKQDGSEKYYVDSVKGRFTISRDNAKNSLYLQMNSLRAEDTAVYYCAREGGWFGELAFDYWGQGTLVTVSSASTKGPSVFPLAPSSKSTSGGTAALGCLVKDYFPEPVTVSWNSGALTSGVHTFPAVLQSSGLYSLSSVVTVPSSSLGTQTYICNVNHKPSNTKVDKRVEPKSCDKTHTCPPCPAPEFEGGPSVFLFPPKPKDTLMISRTPEVTCVVVDVSHEDPEVKFNWYVDGVEVHNAKTKPREEQYNSTYRVVSVLTVLHQDWLNGKEYKCKVSNKALPASIEKTISKAKGQPREPQVYTLPPSREEMTKNQVSLTCLVKGFYPSDIAVEWESNGQPENNYKTTPPVLDSDGSFFLYSKLTVDKSRWQQGNVFSCSVMHEALHNHYTQKSLSLSPG
light: EIVLTQSPGTLSLSPGERATLSCRASQRVSSSYLAWYQQKPGQAPRLLIYDASSRATGIPDRFSGSGSGTDFTLTISRLEPEDFAVYYCQQYGSLPWTFGQGTKVEIKRTVAAPSVFIFPPSDEQLKSGTASVVCLLNNFYPREAKVQWKVDNALQSGNSQESVTEQDSKDSTYSLSSTLTLSKADYEKHKVYACEVTHQGLSSPVTKSFNRGEC
notes: IgG anti-PD-L1, scFv anti-BTN3A
With B3, the “MFI at 10 nM” value in assay [6] stood at 746000 MFI; in assay [5] it was 997000 MFI. Besides, the “MFI at 100 nM” value was found to be 784000 MFI in assay [6] and 1.5e+06 MFI in assay [5]. The equilibrium dissociation constant (Kd) in assay [3] amounted to 0.114 nM; in assay [7], 0.073 nM.

B4: bsAb041 (bispecific antibody)
heavy (part 1 of 2): EVQLVESGGGLVQPGGSLRLSCAASGFTFSRYWMSWVRQAPGKGLEWVANIKQDGSEKYYVDSVKGRFTISRDNAKNSLYLQMNSLRAEDTAVYYCAREGGWFGELAFDYWGQGTLVTVSS
heavy (part 2 of 2): GGGGSGGGGSGGGGSGGGGSDIQMTQSPSSLSASVGDRVTITCHASQNINVWLSWYQQKPGKAPKLLIYKASNLHTGVPSRFTGSGSGTDFTFTISSLQPEDIATYYCQQGQTYPYTFGQGTKLEIKGGGGSGGGGSGGGGSGGGGSQVQLVQSGAEVKKPGASVKLSCKASGYIFTRYYMYWVKQRPGQGLEWIGEINPNNGGTKFNEKFKNRATLTVDKSISTAYMELSRLRSDDTAVYYCSREDDYDGTPFAMDYWGQGTLVTVSS
heavy: GGGGSGGGGSGGGGSGGGGSDIQMTQSPSSLSASVGDRVTITCHASQNINVWLSWYQQKPGKAPKLLIYKASNLHTGVPSRFTGSGSGTDFTFTISSLQPEDIATYYCQQGQTYPYTFGQGTKLEIKGGGGSGGGGSGGGGSGGGGSQVQLVQSGAEVKKPGASVKLSCKASGYIFTRYYMYWVKQRPGQGLEWIGEINPNNGGTKFNEKFKNRATLTVDKSISTAYMELSRLRSDDTAVYYCSREDDYDGTPFAMDYWGQGTLVTVSS
light: EIVLTQSPGTLSLSPGERATLSCRASQRVSSSYLAWYQQKPGQAPRLLIYDASSRATGIPDRFSGSGSGTDFTLTISRLEPEDFAVYYCQQYGSLPWTFGQGTKVEIKRTVAAPSVFIFPPSDEQLKSGTASVVCLLNNFYPREAKVQWKVDNALQSGNSQESVTEQDSKDSTYSLSSTLTLSKADYEKHKVYACEVTHQGLSSPVTKSFNRGEC
notes: one Fab arm anti-PD-L1, two scFv anti-BTN3A; not shown: IgG1 CH1-hinge-CH2-CH3; CH2-CH3 (Fc)
Regarding B4, the “MFI at 10 nM” value in assay [6] is 1.14e+06 MFI; in assay [5], 1.1e+06 MFI. For the same molecule, the “MFI at 100 nM” value came out at 1.3e+06 MFI in assay [6] and 1.67e+06 MFI in assay [5]. In addition, the Kd in assay [3] was determined as 0.101 nM; in assay [7], 0.053 nM.

B5: bsAb024 (bispecific antibody)
heavy: QVQLVQSGAEVKKPGASVKLSCKASGYIFTRYYMYWVKQRPGQGLEWIGEINPNNGGTKFNEKFKNRATLTVDKSISTAYMELSRLRSDDTAVYYCSREDDYDGTPFAMDYWGQGTLVTVSSGGGGSGGGGSGGGGSGGGGSDIQMTQSPSSLSASVGDRVTITCHASQNINVWLSWYQQKPGKAPKLLIYKASNLHTGVPSRFTGSGSGTDFTFTISSLQPEDIATYYCQQGQTYPYTFGQGTKLEIKGGGGSGGGGSGGGGSGGGGSEVQLVESGGGLVQPGGSLRLSCAASGFTFSRYWMSWVRQAPGKGLEWVANIKQDGSEKYYVDSVKGRFTISRDNAKNSLYLQMNSLRAEDTAVYYCAREGGWFGELAFDYWGQGTLVTVSSASTKGPSVFPLAPSSKSTSGGTAALGCLVKDYFPEPVTVSWNSGALTSGVHTFPAVLQSSGLYSLSSVVTVPSSSLGTQTYICNVNHKPSNTKVDKRVEPKSCDKTHTCPPCPAPEFEGGPSVFLFPPKPKDTLMISRTPEVTCVVVDVSHEDPEVKFNWYVDGVEVHNAKTKPREEQYNSTYRVVSVLTVLHQDWLNGKEYKCKVSNKALPASIEKTISKAKGQPREPQVYTLPPSREEMTKNQVSLTCLVKGFYPSDIAVEWESNGQPENNYKTTPPVLDSDGSFFLYSKLTVDKSRWQQGNVFSCSVMHEALHNHYTQKSLSLSPG
light: EIVLTQSPGTLSLSPGERATLSCRASQRVSSSYLAWYQQKPGQAPRLLIYDASSRATGIPDRFSGSGSGTDFTLTISRLEPEDFAVYYCQQYGSLPWTFGQGTKVEIKRTVAAPSVFIFPPSDEQLKSGTASVVCLLNNFYPREAKVQWKVDNALQSGNSQESVTEQDSKDSTYSLSSTLTLSKADYEKHKVYACEVTHQGLSSPVTKSFNRGEC
notes: as for B3
Take B5: the “MFI at 10 nM” value in assay [6] was found to be 762000 MFI. For the same molecule, the “MFI at 100 nM” value in assay [6] came to 794000 MFI; in assay [5], 1.66e+06 MFI. In addition, the dissociation constant (Kd) was found to be 0.073 nM in assay [3] and 0.065 nM in assay [7].

B6: bsAb036 (bispecific antibody)
heavy (part 1 of 2): EVQLVESGGGLVQPGGSLRLSCAASGFTFSRYWMSWVRQAPGKGLEWVANIKQDGSEKYYVDSVKGRFTISRDNAKNSLYLQMNSLRAEDTAVYYCAREGGWFGELAFDYWGQGTLVTVSS
heavy (part 2 of 2): GGGGSGGGGSGGGGSGGGGSQVQLVQSGAEVKKPGASVKLSCKASGYIFTRYYMYWVKQRPGQGLEWIGEINPNNGGTKFNEKFKNRATLTVDKSISTAYMELSRLRSDDTAVYYCSREDDYDGTPFAMDYWGQGTLVTVSSGGGGSGGGGSGGGGSGGGGSDIQMTQSPSSLSASVGDRVTITCHASQNINVWLSWYQQKPGKAPKLLIYKASNLHTGVPSRFTGSGSGTDFTFTISSLQPEDIATYYCQQGQTYPYTFGQGTKLEIK
heavy: GGGGSGGGGSGGGGSGGGGSQVQLVQSGAEVKKPGASVKLSCKASGYIFTRYYMYWVKQRPGQGLEWIGEINPNNGGTKFNEKFKNRATLTVDKSISTAYMELSRLRSDDTAVYYCSREDDYDGTPFAMDYWGQGTLVTVSSGGGGSGGGGSGGGGSGGGGSDIQMTQSPSSLSASVGDRVTITCHASQNINVWLSWYQQKPGKAPKLLIYKASNLHTGVPSRFTGSGSGTDFTFTISSLQPEDIATYYCQQGQTYPYTFGQGTKLEIK
light: EIVLTQSPGTLSLSPGERATLSCRASQRVSSSYLAWYQQKPGQAPRLLIYDASSRATGIPDRFSGSGSGTDFTLTISRLEPEDFAVYYCQQYGSLPWTFGQGTKVEIKRTVAAPSVFIFPPSDEQLKSGTASVVCLLNNFYPREAKVQWKVDNALQSGNSQESVTEQDSKDSTYSLSSTLTLSKADYEKHKVYACEVTHQGLSSPVTKSFNRGEC
notes: as for B4
On to B6, for which the “MFI at 10 nM” value came out at 1.03e+06 MFI in assay [6] and 682000 MFI in assay [5]. Besides, the “MFI at 100 nM” value came out at 1.24e+06 MFI in assay [6] and 1.22e+06 MFI in assay [5]. Besides, the Kd in assay [3] was 0.457 nM; in assay [7], 0.055 nM.
